Measured values reported in US12329823B2 (The Scripps Research Institute, priority 2021, dated 2025).
Read-outs that look alike come from different tables or passages of the source.

Tests used:
in vivo = settings: cynomolgus monkey
human GIPR = target: T1, human GIPR (Homo sapiens, UniProt P48546); assay: In vitro receptor activation reporter assay (CRE-Luc, HEK293-GIPR-CRE cells; receptor-mediated cAMP synthesis); format: cell-based
T1 construct: expressed in transfected cells; host or cells: HEK293 (CRE-HEK293, HEK293-GIPR-CRE)
T1 sequence (P48546 22-466): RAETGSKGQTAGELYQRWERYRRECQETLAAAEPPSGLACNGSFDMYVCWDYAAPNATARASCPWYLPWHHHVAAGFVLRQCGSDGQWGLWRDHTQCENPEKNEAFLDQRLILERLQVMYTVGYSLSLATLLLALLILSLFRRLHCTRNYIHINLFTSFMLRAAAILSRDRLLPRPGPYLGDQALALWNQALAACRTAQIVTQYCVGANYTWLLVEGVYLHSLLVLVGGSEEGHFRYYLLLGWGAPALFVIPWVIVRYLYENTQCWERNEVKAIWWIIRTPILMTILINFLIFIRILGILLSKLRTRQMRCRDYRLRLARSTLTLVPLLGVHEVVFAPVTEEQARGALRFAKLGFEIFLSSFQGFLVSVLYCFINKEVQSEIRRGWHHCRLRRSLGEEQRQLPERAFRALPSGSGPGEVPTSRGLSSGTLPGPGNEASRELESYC
Experimental: HEK293 cells were infected with lentivirus encoding firefly luciferase gene under the control of cAMP responsive element (CRE) promoter (Qiagen, The Netherlands) and then were selected using 1 μg mL^−1 puromycin (Life Technologies, Carlsbad) for 1 week. The surviving cells (referred to as CRE-HEK293) were expanded and then transfected with a G418 selective mammalian expression plasmid encoding human GLP-1R or GIPR. In brief, GLP-1R or GIPR plasmid was transfected into CRE-HEK293 cells using Lipofectamine 2000 and selected with 400 μg mL^−1 Geneticin (Life Technologies, Carlsbad, CA). Single colony stable cell line overexpressing CRE-luciferase and GLP-1R or GIPR (HEK293-GLP-1R-CRE or HEK293-GIPR-CRE) was then established for in vitro activity assay.
The EC50 of each peptide was determined using GraphPad Prism 6 software (GraphPad, San Diego, CA).

mouse GIPR = target: T2, mouse GIPR (Mus musculus, UniProt Q0P543); assay: In vitro potency, mouse GIPR activation (receptor-mediated cAMP synthesis); format: cell-based; settings: Table 12
T2 sequence (Q0P543 19-460): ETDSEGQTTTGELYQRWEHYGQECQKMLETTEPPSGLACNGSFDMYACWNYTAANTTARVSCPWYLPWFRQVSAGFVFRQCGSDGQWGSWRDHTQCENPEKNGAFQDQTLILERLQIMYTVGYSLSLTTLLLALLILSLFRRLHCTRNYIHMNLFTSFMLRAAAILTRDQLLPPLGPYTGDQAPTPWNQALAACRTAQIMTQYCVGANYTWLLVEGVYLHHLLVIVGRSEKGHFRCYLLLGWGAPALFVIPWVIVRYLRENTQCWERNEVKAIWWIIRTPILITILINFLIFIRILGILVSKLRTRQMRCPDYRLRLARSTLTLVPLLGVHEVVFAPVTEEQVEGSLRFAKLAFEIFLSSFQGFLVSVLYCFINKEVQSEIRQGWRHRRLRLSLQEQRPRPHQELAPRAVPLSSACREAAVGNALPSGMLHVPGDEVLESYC

[1] = In Vitro Potency GIPR EC50, 10% FBS, Table 11, human, 10% FBS
[2] = Table 11, human, No Serum, read-out: In Vitro Potency GIPR EC50, No Serum

Row | Compound | t1/2 in cynomolgus monkeys (in words) (in vivo) | AUC(0-t) (in vivo; iv) | T last (in vivo; iv) | Vd (in vivo; iv) | clearance (in vivo; iv) | half-life (in vivo; iv) | AUC(0-t) (in vivo; sc) | Cmax (in vivo; sc) | T last (in vivo; sc) | Tmax (in vivo; sc) | bioavailability (in vivo; sc) | half-life (in vivo; sc) | EC50 (human GIPR; [1]) | EC50 (human GIPR; [2]) | EC50 (mouse GIPR) | EC50 (human GIPR; unnumbered table, average of runs, read-out: EC50 GIPR average) | EC50 (human GIPR; unnumbered table, run 02/19, read-out: EC50 GIPR 02/19) | EC50 (human GIPR; unnumbered table, run 03/25, read-out: EC50 GIPR 03/25) | EC50 (human GIPR; unnumbered table, run 03/26, read-out: EC50 GIPR 03/26)
1 | CC[C@H](C)[C@H](NC(=O)[C@H](CC(C)C)NC(=O)[C@H](Cc1c[nH]c2ccccc12)NC(=O)[C@@H]1CSCC(=O)NCCN(C(=O)CCC(=O)NCCOCCOCCC(=O)NCCOCCOCCC(=O)NCCCC[C@H](NC(=O)CCCCCCCCCCCCCCCCC(=O)O)C(=O)O)CCNC(=O)CSC[C@H](NC(=O)[C@H](CCCCN)NC(=O)[C@H](CC(=O)O)NC(=O)[C@H](CC(C)C)NC(=O)[C@H](Cc2ccc(O)cc2)NC(=O)[C@@H](NC(=O)[C@H](CO)NC(=O)[C@H](Cc2ccc(O)cc2)NC(=O)[C@H](CC(=O)O)NC(=O)[C@H](CO)NC(=O)[C@@H](NC(=O)[C@H](Cc2ccccc2)NC(=O)[C@@H](NC(=O)CNC(=O)[C@H](CCC(=O)O)NC(=O)C(C)(C)NC(=O)[C@@H](N)Cc2ccc(O)cc2)[C@@H](C)O)[C@@H](C)O)[C@@H](C)CC)C(=O)N[C@@H](C)C(=O)N[C@@H](C)C(=O)NC(C)(C)C(=O)N[C@@H](CCC(=O)O)C(=O)N[C@@H](Cc2ccccc2)C(=O)N[C@@H](C(C)C)C(=O)N1)C(=O)N[C@@H](C)C(=O)NCC(=O)NCC(=O)N1CCC[C@H]1C(=O)N[C@@H](CO)C(=O)N[C@@H](CO)C(=O)NCC(=O)N[C@@H](C)C(=O)N1CCC[C@H]1C(=O)N1CCC[C@H]1C(=O)N1CCC[C@H]1C(=O)N[C@@H](CO)C(N)=O [mCMZ371, YAibEGT-FTSDY-SIYLD-KXAAAib-EFVXW-LIAGG-PSSGA-PPPS-NH2 (where each X is C) (SEQ ID NO: 61)] | long t1/2 | 267 µg·h/mL | 240 h | 0.0538 L/kg | 18.1 mL/day/kg | 60.2 h | 156 µg·h/mL | 1740 ng/mL | 240 h | 24 h | 58.5% | 49.3 h | 0.04 ± 0.01 nM | 0.01 nM | 0.27 nM | – | – | – | –
2 | CC[C@H](C)[C@H](NC(=O)[C@H](CC(C)C)NC(=O)[C@H](Cc1c[nH]c2ccccc12)NC(=O)[C@@H]1CSCC(=O)NCCN(C(=O)CCC(=O)NCCOCCOCCC(=O)NCCOCCOCCC(=O)NCCCC[C@H](NC(=O)CCCCCCCCCCCCCCCCCCC(=O)O)C(=O)O)CCNC(=O)CSC[C@H](NC(=O)[C@H](CCCCN)NC(=O)[C@H](CC(=O)O)NC(=O)[C@H](CC(C)C)NC(=O)[C@H](Cc2ccc(O)cc2)NC(=O)[C@@H](NC(=O)[C@H](CO)NC(=O)[C@H](Cc2ccc(O)cc2)NC(=O)[C@H](CC(=O)O)NC(=O)[C@H](CO)NC(=O)[C@@H](NC(=O)[C@H](Cc2ccccc2)NC(=O)[C@@H](NC(=O)CNC(=O)[C@H](CCC(=O)O)NC(=O)C(C)(C)NC(=O)[C@@H](N)Cc2ccc(O)cc2)[C@@H](C)O)[C@@H](C)O)[C@@H](C)CC)C(=O)N[C@@H](C)C(=O)N[C@@H](C)C(=O)NC(C)(C)C(=O)N[C@@H](CCC(=O)O)C(=O)N[C@@H](Cc2ccccc2)C(=O)N[C@@H](C(C)C)C(=O)N1)C(=O)N[C@@H](C)C(=O)NCC(=O)NCC(=O)N1CCC[C@H]1C(=O)N[C@@H](CO)C(=O)N[C@@H](CO)C(=O)NCC(=O)N[C@@H](C)C(=O)N1CCC[C@H]1C(=O)N1CCC[C@H]1C(=O)N1CCC[C@H]1C(=O)N[C@@H](CO)C(N)=O [mCMV268] | – | – | 504 h | 0.0612 L/kg | 20.2 mL/day/kg | 58.8 h | 438 µg·h/mL | 3930 ng/mL | 504 h | 14.7 h | 73.7% | 60.5 h | 0.09 ± 0.02 nM | 0.01 ± 0.01 nM | 0.26 nM | 0.04 nM | 0.05 nM | 0.04 nM | 0.03 nM
